In assay [1] the target is ground-state bovine rhodopsin (native, from rod outer segments) (bovine, UniProt P02699, 11-cis-retinylidene chromophore (Schiff base at Lys296); N-linked glycans at Asn2 and Asn15).
Assay [2] has as its target photoactivated bovine rhodopsin (Bos taurus (native, rod outer segments), UniProt P02699, all-trans-retinylidene chromophore after photoisomerization; N-linked glycans at Asn2 and Asn15).

2 molecules from PMC10457330, “Structural basis for the allosteric modulation of rhodopsin by nanobody binding to its extracellular domain” (Nature Communications, 2023) can be followed below.

ground-state bovine rhodopsin (native, from rod outer segments), sequence (P02699 whole entry): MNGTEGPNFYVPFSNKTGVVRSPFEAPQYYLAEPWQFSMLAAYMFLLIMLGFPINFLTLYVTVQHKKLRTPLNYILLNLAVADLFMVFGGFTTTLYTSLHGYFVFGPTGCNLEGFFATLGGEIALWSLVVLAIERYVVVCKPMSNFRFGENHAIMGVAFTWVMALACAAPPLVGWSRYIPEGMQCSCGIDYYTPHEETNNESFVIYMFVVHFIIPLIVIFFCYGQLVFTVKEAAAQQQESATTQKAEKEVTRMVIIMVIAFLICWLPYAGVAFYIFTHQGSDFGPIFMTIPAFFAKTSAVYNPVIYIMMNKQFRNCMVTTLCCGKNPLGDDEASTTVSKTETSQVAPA
photoactivated bovine rhodopsin, sequence (P02699 whole entry): as above

B1: Nb12 (VHH)
VHH: QVQLVESGGGLVQPGGSLRLSCAASGFTFNRYVMNWVRQAPGKGLEWVSGISRDGSYTDYADSVKGRFTISRDNAKDTLYLQMNSLKPEDTAVYYCSKYNSVVTTPPGQGTQVTVSS
In the case of B1, the binding result in assay [1] and in assay [2] was “binds” throughout.

B2: Nb22 (VHH)
VHH: QVQLVESGGGLVQAGGSLRLSCTASGNSFTFYTMGWYRQAPGKQRELVASITHRDSTNYADSMKDRFTISRDNSKNTVYLQMNSLKAEDTAVYYCNLHGRTRLLGREYDYWGQGTQVTVSS
Consider B2, for which the binding result in assay [1] and in assay [2] was “binds” throughout.
